# Assay: yeast display, Sf9 membrane polyspecificity reagent, FACS + sequencing; frameworks hold sequencing errors
# How it was run: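 Using colony PCR, genes from sorted yeast display clones were amplified, then sequenced on MiSeq at 2 × 250 and filtered by CDR length. The clones had been stained with 10% biotinylated, detergent-solubilized Sf9 membrane reagent for 1 hour at 4 °C and sorted by FACS into low and high (top ~1%) gates on anti-HA and streptavidin fluorescence. Polyreactivity labels come from the gate of origin.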
row,Sequence,polyreactivity (PSR sort gate)
1,QVQLVESGGGLVQAGGSLRLSCAASGRIFDYYYMGWYRQAPGKERELVAAISNGGSTYYADSVKGRFTISRDNAKNTVYLQMNSLKPEDTAVYYGAAVISFSGYDYYYWGQGTQVTVSS,high polyreactivity
2,QVQLVESGGGLVQAGGSLRLSCAASGSIFGYYAMGWYRQAPGKERELVAAITTRGGRTYYADSVKGRFTISRDNAKNTVYLQMNSLNPEDTAVYYCAARTGRGRYDYWGQGTQVTVSS,high polyreactivity
3,QVQLVESGGGLVQAGGSLRLSCAASGRIFAHNAMGWYRQAPGKERELVAAINSGGSTRYADSVKGRFTISRDNAKNTVYLQMNSLKPEDTAVYYCARGPKGYYFARYGYWGQGTQVTVSS,high polyreactivity
4,QVQLEESGGGLVQAGGSLRLSCAASGSNFSRYAMGWYRQAPGKERELVAAISWAGNTYYADSVKGRFTISRDNAKNTVYLQMNSLKPEDTAVYYCNADRVRYLFTRYDYWGQGTQVTVSS,high polyreactivity
5,QVQLVESGGGIVQAGGSLRLSCAASGRIFDEYAMGWYRLAPGKERELVAAITYSAGSTYYADSVKGRFTISRDNAKNTVYLQMNSLKPEDTAVYYCAADRYYWWWYTYNYWGQGTQVTVSS,low polyreactivity
6,QVQLVESGGGLVQAGGSLRLSCAASGRIFYINAMGWYRQAPGKERELVAAITGGDGSTTYADSVKGRFTISRDNAKNTVYLQMNSLKPEDTAVYYCNAVTARKYAESQFDHWGQGTQVTVSS,low polyreactivity
7,QVQLVESGGGLVQAGGSLRLSCAASGSIFYTYVMGWYRQAPRKERELVAAITRAGNTYYADSVKGRFTISRDNAKKTVYLQMNILKPEDTAVYYCAAGRYKPFTYHFDYWGQGTQVTVSS,high polyreactivity
8,QVQLVESGGGLVQAGGSLRLSCAASGSIFDYNVMGWYRKAPGKERELVAAITYNDGSTYYADSVKGRFTISRDNAKNTVYLQMNSLKPEDTAVYYCAADYPGGGIYWYFYVYDYDYWGQGTQVTVSS,low polyreactivity
9,QVQLVDSGGGLVQAGGSLRLSCAASGITFGRNTMGGYRQAPGKERELVAAIDSGGNTYADSVKGRFTISRDNAKNSVYLQMNSLKPEDTAVYYCAVDGGEFSSYGYWGQGTQVTVSW,low polyreactivity
10,QVQIVESGGGLVQAGGSLRLSCAASGRTFYLNAMGWYRQAPGKERELVAANRFSGGSTYYADSVKGRFTISRDNAQNTVYLQMNSLKPEDTAVYYCIAGADHALYPTVSEYGYWGQGTQVTVSS,low polyreactivity
11,QVQLQESGGGLVQAGGSPRLSCAASDNIFPDSVMCWYRQAPGKERELVATIGFGATTNSADSVKGRFTISRDNAKNTVYLQMNSLKPEDTAVYSCAADPLNYEYFCYWGQGTQVTVSS,low polyreactivity
12,QVQLGESGGGLVQAGGSLRLSCAASGRIFWYNAMGWYRQAPGKERELVAGIRSGGSTNYADSVKGRFTISRDNAKNTVYLQMNSLKPDDTAVYYCNVDHEARKLHVSIKQLSDHWGQGTQVTVSS,low polyreactivity
13,QVQLVESGGGLVQAGGSLRLSCAASGFTIWWYAMRWYRQATGKERELVATITSGGRTYYADSVKGRFTISRDNAKNTDYLQMNSLKPEDTAVYYCAAESEVGYVYDPMYYWGQGTQVTVSS,high polyreactivity
14,QVQLVESGGGLVQAGGSLRLSCAASGFTFKYYDMGWYRQAPGKERELVAGITWDGGSTTYSDSVKGRFTISRDNAKNTVYLQMNSLKPEDTAVYYCAADVRYTSPFYYYLGAYYYWGQGTQVTVSS,low polyreactivity
15,QVQLVESGGGLVQAGGSLRLSCAASGIIFYGYVMGWYRQAPGKERELVATITSSGGSTYYADSVKGRFTISRDNAKNTVYLQMNSLKPEDTGVYYCAADYYYGAWVRHDYWGQGTQVTLSS,low polyreactivity
16,QVQLVESGGGLVQAGGSLRLICAASGRTFAYNAMGWYRQAPGKERELVAAISYRGTTTYYADSVKGRFTISRDNAKNTVYLQMNSLKPEDTAVYYCNKVGTRFSAYSSGFVLSEYYYWGQGTQVTVSS,high polyreactivity
17,QVQLVESGGGLVQAGGSLRLSSAASGFILEPNAMGWYRQAPGKERELVAAITTSGGTYYADSVKGRFTISRDNAKNTVYLQMNSLKPEDTAVYYCNAVSTDSWAYHGDYWGQGTQVTVSS,low polyreactivity
18,QVQLVESGGGLVQAGGSLRLSGAASGFNLEPNAMGWYRQAPGKERELVATISFSGGGTYYADSVKGRFTISRDNAKNTVYLQMNSLKPEDTAVYYCAADWYYYVWWYDYWGQGTQVTVSS,high polyreactivity
19,QVQLVESGGGLVQAGGSLRLSCAASGRIFGTNAMGWYRQAPGKERELVADITSGGSTNYADSVKGRFTISRDNAKNTVYLQMNSLKPEDTAVYYCAADVIADLRWYRDEYWGQGTQLTVSS,low polyreactivity
20,QVQLVESGGGLVQAGGTLRLICAASGSTFGPYDMGWYRQAPGKERELVADITSGGSTYYADSVKGRFTISRDNAKNTVYLQMISLKPEDTAVYYCAADRVWPYYQYDYWGQGTQVTVSS,low polyreactivity
21,QVQLVESGGGLVQAGGSLRLSCAASGSTFGRNAMGWYRQAPGKERELVAAISSGGRTYYADSVKGRFTISRDNAKNTVYLQMNSLKPEDTAVYYCARDDYGTLVKLYVRGFNYWGQGTQVTVSS,low polyreactivity

row,Sequence,polyreactivity (PSR sort gate)
1,QVQLVESGGGLVQAGGSLRLSCAASGRTILVYAMGWYRQAPGKERELVAAISRSGGSTYYADSVKGRFTISRDNAKNTVYLQMNSLKPEDTAVYYCAAKNTGRYYWGQGTQVTVSS,high polyreactivity
2,QVQLVESGGGLVQAGGRLRLSCAASGITFYVYAMGWYRQAPGKVREFVAAISTRDGTTYADSVKGRFTISRDNAKNTVYLQMNRLKPEDTAVYFCAAAYYYDGQQGDFDYWGQGTQVTVSS,low polyreactivity
3,QVQLVESGGGLVQAGGSLRLSCAASGSIVNYYAMGWYRPAPGKERELVAAITSGGSTYYADSVKGRFTISRDNAKNTVYLQMNSLKAEDTAVYYCNKAFPYIYDYWGQGTQVTVSS,low polyreactivity
4,QVQLVESGGGLVQAGGSVRLSCAASGFSFRLYVLGWYRQAPGTERELVAAISSLGGSTYYADSVKGRFTISRDNAKYTVDLQMNSLKPEDTAVYYCAADRPRGRETVDYWGHGTQVTVSS,high polyreactivity
5,QVQLVESGGGLVQAGGSLRLSCAASGLTFKTYAMGWYRQAPGKERELVAAISRSGGSTSYADSVKGRFTISRDNAKNTVYLQMNSLKPEDTAVYYCAAKTYEPRKYEYWGQGTQVTVSS,high polyreactivity
6,QVQLVESGGGLVQAGGSLRLSCAASGSTFRRNAMGWYRQAPGKERELVAAISRTAGSTYYADSVKGRFTISRDNAKNTVYLQMNSLKPEDTAVYYCNRRYVSTSGELDYWGQGTQVTVSS,high polyreactivity
7,QVQLVESGGGLVQAGGSLRLSCAASGFTFAWNAMGWYRQAPGKERELVATIDVSGGSTYYADSVKGRFTISRDNAKNTVYLQMNILKPEDTAVYYCAADELPEGGYDYWGHGTQVTVSS,low polyreactivity
8,QVQLQESGGGLVLAGGSLRLSCAASGSISAQAYMGWDRQAPGKEREHVAGINYGDNTNYADSVKGRFTISRDNEHSVSADEQPETGRYRGVLLRGFLELFYYYIYWGQGTQVTVSS,high polyreactivity
9,QVQLVESGGGLVQAGGSLRLSCAASGRTIRWNAMGWYRQAPGKERELVAAITSRGGSTYYADSVKGRFTISRDNAKNTVYLQMNSLKPEDTAVYYCAKQPKPPPVTGYDYWGQGTQVTVSS,high polyreactivity
10,QVQLVESGGGLVQAGGSLRLSCAASGSIFSTYAMGWYRQAPGKERELVAALDDDGGSTYYADSVKGRFTISRDNAKNTVYLQMNSLKPEDTAVYYCNADYDGNGWAGDYSDSYDYWGQGTQVTVSS,low polyreactivity
11,QVQLLESGGGLVQAGGSLRLSCAASGRTSYIYSMGWYRKAPGKEREFVADITWSGGSTYYADSVKGRFTISRDNAKNTVYLQMNSLKPEDTAVYYCNADLLSWWGVEYYYWGQGTQVTVSS,high polyreactivity
12,QVQLVESGGGLVQAGGSLRLSCAASGSILFYAMVWYRQAPGKERELVAAITWRGGSTYYADSVKGRFTISRDNAKNSVYLQMNSLKPEDTAVYYCARDETGRIEGDYWGQGTQVTVSS,high polyreactivity
13,QVQLVESGGGLVQAGGSLRLSCAAYGFIFVRYAMGWYRQAPGKERELVAAISWRGGSTYYADSVKGRFTISRDNAKNTVYLQMNSLKPEDNAVYYCAGAVYQRARYYWGQGTQVNVSS,high polyreactivity
14,QVQLVESGGGLVQAGGSHRLSCAASGRTFRYNAMGWYRQATGKERELVAAISTRGGSTYYADSVKGRFTISRDNAKNTVYLQMNSLKPEDTAVYYCATKVYSSRYRGYGYWGQGTQVTVSS,high polyreactivity
15,QVQLVESGGGLVQAGGSLRLSCAASGRIFGYYTMGWYRQAPGKERELVATIDWSGDSTYYADSVKARFTISRDNAKNTVYLQMNSLKPEDTAVYYCAARDHAFRYYRNPYKGKYDYWGQGTQVPVSS,low polyreactivity
16,QVQLVDSGGGLVQAGGSLRLSCSASGFTFAWYAMGWYRQAPGKERELVAAISGSGGRTYYADSVMGRFTISRDNAKNTVYLQMNSLIPEDTAVYYCATRRRYEYYWGQGTQVTVSS,high polyreactivity
17,QVQLVESGGGLVQAGGSLRLSCAASGRTFPFYAMGWYRQAPGKEREFVASITRSGGSTNYADSVKGRFTISRDNAKNTVYLQMNSLKPEDTAVYYCNAGAVYWGYSRGWYERDYWGQGTQVTVSS,high polyreactivity
18,QVQLVESGGGLVQAGGSLRLSCAASGRTFGSNTMGWYRQAPGKERELVAAISGTGTSTYYADSVKGRFTISRDNAKNTVYLQMNSLKPEDTAVYYCAAGWYKYLFQPHDYWGQGTQVTVSS,low polyreactivity
19,QVQLVESGGGLVQAGGSLRLSCAASGLIFGRNARGWYRQAPGKERELVAVISKRGGSTYYADSVKGRFTISRDNAKNTVYLQMNSLKPADTAVYYCAADYGSTGNYWGQGTQVTVSS,high polyreactivity
20,QVQLVESGGCLVQAGGSLRLSCAASGGTFVTYAMGWYRQAPGKERELVAAITTGGSTYYADSVKGRFTISRDNAKNTVYLQMNSLKPEDSAVYYCAAVYTGSGKRYYKGYYWGQGTQVTVSS,low polyreactivity
